In paper PMC6218473, “Recognition of host Clr-b by the inhibitory NKR-P1B receptor provides a basis for missing-self recognition” (Nature Communications, 2018) one finds response data, which are given here for 15 variants.

B1: NKR-P1B tetramers (biotinylated NKR-P1B on streptavidin) [modified: biotin on the BirA tag; biotin on the BirA tag] [mouse] / Clr-b on transfected HEK293T cells [mouse] (parent)
chain 1: SAKLECPQDWLSHRDKCFHVSQVSNTWKECRIDCDKKGATLLLIQDQEELRFLLDSIKEKYNSFWIGLSYTLTDMNWKWINGTAFNSDVLKITGVTENGSCAAISGEKVTSEGCSSDNRWICQKELN
chain 2: MCVTKASLPMLSPTGSPQEVEVGKILQGKRHGTISPESCAKLYCYYGVIMVLTVAVIALSVALSATKTEQIPVNKTYAACPQNWIGVENKCFYFSEYPSNWTFAQAFCMAQEAQLARFDNQDELNFLMRYKANFDSWIGLHRESSEHPWKWTDNTEYNNTIPIRGEERFAYLNNNGISSTRIYSLRMWICSKLNSYSLHCQTPFFPS

In this test the parent is B1. Description: flow cytometry on cells (PE-tetramer staining). As to conditions: with Clr-b on transfected HEK293T cells [mouse]; HEK293T cells stained 48 h after transfection with Clr-b pIRES2-EGFP; parent: 3.14e+03.
Take chain 1 D117A: the response turned out to be 232 MFI.

In the case of chain 1 D74A, the response stood at 212 MFI.

chain 1 S116A: the response came out at 211 MFI.

In the case of chain 1 S116R, the response was 198 MFI.

Regarding chain 1 N25A, the response turned out to be 5680 MFI.

For chain 1 N62A, the response worked out at 4880 MFI.

In the case of chain 1 N118A, the response is 213 MFI.

For chain 1 E112A, the response came to 269 MFI.

Regarding chain 1 S100A, the response amounted to 217 MFI.

Turning to chain 1 S115A, the response was 178 MFI.

As to chain 1 V95A, the response came to 5900 MFI.

As to chain 1 Y61A, the response is 346 MFI.

For the variant chain 1 T96A, the response was determined as 208 MFI.

On to chain 1 S111A, for which the response is 229 MFI.

Consider chain 1 R119A, for which the response was found to be 238 MFI.
